The target in one test is T1, human rI-domain (Homo sapiens, UniProt P11215).
T1 construct: Recombinant human and mouse I-domain proteins were made and purified as previously described; made in house
The experiment in a line: Surface plasmon resonance, immobilized human rI-domain. The test is classed as binding. The following applies: purified pilin 0.125-2 μM; NCDI = no concentration-dependent interaction (no binding of ≤2 μM); read-out: KD, rI-domain, Human. On the procedure: (§1) SPR analyses were performed using a Biacore S200 system (GE Healthcare Life Sciences, Parramatta, NSW, Australia). Samples were analyzed at 25°C in phosphate-buffered saline (PBS) at a flow rate of 10 μl/min and by using single-cycle kinetics. Human rI-domain, mouse rI-domain, and human rCR3 were immobilized onto separate cells of a Series S CM5 sensor chip using an NHS capture kit (both from GE Healthcare Life Sciences) for purified pilin experiments. For experiments in which pilin-glycan-like structures were examined, human rI-domain and rCR3 were immobilized onto separate cells of a CM5 chip. A blank immobilization was used as a control/reference on all chips. MS11 wild-type and MS11 pglA pilin were serially diluted from 2 μM to 0.125 μM in PBS. Glycans (Dextra Laboratories, Reading, UK) (Table 2), resembling the gonococcal Gal(α1-3)diNAcBac pilin-linked glycan, were serially diluted from 2 μM to 0.0078 μM in PBS. Affinity data points were taken at 15 s after injection to avoid an artefactual signal resulting from bulk transport. SPR sensorgrams were analyzed using Biacore Evaluation software (GE Healthcare Life Sciences).

For another test, the target named is T2, mouse rI-domain (Mus musculus, UniProt P05555).
T2 construct: Recombinant human and mouse I-domain proteins were made and purified as previously described; made in house
The experiment in a line: Surface plasmon resonance, immobilized mouse rI-domain. As to conditions: purified pilin 0.125-2 μM; NCDI = no concentration-dependent interaction (no binding of ≤2 μM). On the procedure: as §1

T2 sequence (P05555 164-338): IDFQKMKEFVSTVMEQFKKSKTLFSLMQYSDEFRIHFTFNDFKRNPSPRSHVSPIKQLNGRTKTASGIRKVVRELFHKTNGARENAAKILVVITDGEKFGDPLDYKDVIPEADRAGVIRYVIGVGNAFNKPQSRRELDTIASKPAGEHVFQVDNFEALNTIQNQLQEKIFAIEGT
T1 sequence (P11215 150-328 limits assumed): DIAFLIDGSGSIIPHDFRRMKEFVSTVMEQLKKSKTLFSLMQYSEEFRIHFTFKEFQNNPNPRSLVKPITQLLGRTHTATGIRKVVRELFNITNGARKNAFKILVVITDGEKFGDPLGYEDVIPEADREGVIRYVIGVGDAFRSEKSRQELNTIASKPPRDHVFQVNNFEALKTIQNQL

B1: MS11 wild type: N. gonorrhoeae MS11 pilin modified with the Gal(α1-3)diNAcBac disaccharide glycan (protein, UniProt P02974 8-165, looked up)
Type IV major pilin protein …: FTLIELMIVIAIVGILAAVALPAYQDYTARAQVSEAILLAEGQKSAVTEYYLNHGKWPENNTSAGVASPPSDIKGKYVKEVEVKNGVVTATMLSSGVNNEIKGKKLSLWARRENGSVKWFCGQPVTRTDDDTVADAKDGKEIDTKHLPSTCRDNFDAK
modifications: Gal(α1-3)diNAcBac disaccharide glycan
notes: N. gonorrhoeae MS11 pilin modified with the Gal(α1-3)diNAcBac disaccharide glycan
With B1, in the test with human rI-domain, the Kd amounted to 0.349 ± 0.045 µM. Moreover, in the test with mouse rI-domain, the “KD, rI-domain, Mouse” value is “NCDI”.

The record behind these values is paper PMC7064771, “Repurposed Drugs That Block the Gonococcus-Complement Receptor 3 Interaction Can Prevent and Cure Gonococcal Infection of Primary Human Cervical Epithelial Cells” (mBio, 2020).
